# Measurements as given in patent publication US8624002B2, “Prostaglandin E2 binding proteins and uses thereof” (AbbVie, Inc., priority 2008, dated 2014).
# Several values for one entry are separate records, joined by “and”; a condition that tells them apart may be missing. Equal values may be shown once.
# B1: 2B5-8.0: recombinant anti-PGE2 antibody from solved 2B5 sequence; VH SEQ ID NO 42, VL SEQ ID NO 43 (antibody, V domains shown)
# VH: QVQLQQSGPELVRPGSSVKISCKASGYTFTKYWLGWVKQRPGHGLEWIGDIYPGYDYTHYNEKFKDKATLTVDTSSSTAYMQLSSLTSEDSAIYYCARSDGSSTYWGQGTLVTVSA
# VL: DVLMTQTPLSLPVSLGDQASISCTSSQNIVHSNGNTYLEWYLQRPGQSPKLLIYKVSNRFSGVPDRFSGSGSGTVFTLKISRVEAEDLGVYYCFQVSHVPYTFGGGTKLEIKR
# What was measured:
# [1] = Pharmacokinetics of 2B5.8.0 in Balb/C mice; format: in vivo
# Method: (§1) Pharmacokinetic studies with mouse mAb 2B5.8.0 were carried out in Sprague Dawley rats and Balb/C mice. Male and female rats and mice were dosed intravenously or intraperitoneally (mice only) with a single dose of 4 mg/kg 2B5.8.0 and serum samples were analyzed using antigen capture based chemiluminescent MSD (Meso Scale Discovery) method (Meso Scale Discovery, Gaithersburg, Md.). Pharmacokinetic parameters were calculated by non-compartmental analysis using WinNonlin.
# (§2) The following MSD assay was used to measure antibody concentration in rat and mouse serum. MSD streptavidin plates (Meso Scale Discovery, Gaithersburg, Md.) were washed with phosphate buffered saline containing 0.05% Tween-20 (Sigma, St. Louis, Mo.). Plates were blocked with 250 μL/well blocking solution (MSD Block, Meso Scale Discovery, diluted to 3% final concentration in PBS) for 1 hour, covered, with shaking (600 rpm) at room temperature. After washing, 70 μL of biotinylated PGE2 (Prostoglandin E2-biotinamide, Cayman Chemical, Ann Arbor, Mich., cat# 10006987, lot# 190831-191028, 0.01 ug/mL in assay buffer) was added to each well. The plates were covered and incubated with shaking (600 rpm) for 1 hour at room temperature
# (§3) Prior to analysis, rat and mouse serum samples were thawed on ice, mixed gently, and centrifuged at 14,000 rpm for 3 minutes at 4° C. in an eppendorf centrifuge. Standard curve and control samples were prepared in rat and mouse serum. A Tecan Evo automated liquid handling station was used to dilute standard curve, high, medium, and low controls, and serum samples in assay buffer, keeping 1% final serum concentration constant. MSD plates were washed again and study samples, standard curve samples and blanks, as well as high, medium, and low controls were added (70 μL/well). The plates were covered, and incubated for 1 hour with shaking (600 rpm) at room temperature.
# (§4) After incubation, the MSD plates were washed, and 70 μL of sulfo-tagged goat anti-mouse IgG (Meso Scale Discovery; diluted to 1 ug/mL in assay buffer) was added to each well. The MSD plates were covered, and incubated with shaking (600 rpm) for 1 hour at room temperature, then the plates were washed and developed with 2× Read Buffer (Meso Scale Discovery). Chemilumeniscence was measured within ten minutes on the MSD Sector Imager 6000.
# (§5) Standard curves were analyzed using four-parameter logistic fit and sample concentrations were calculated by XLfit4 software version 2.2.1 Build 16, ([…].). Pharmacokinetic parameters were calculated for each animal using Winonlin software version 5.0.1 (Pharsight Corporation, Mountain View, Calif.) by noncompartmental analysis.
# (§6) Male and female Balb/c mice (weighing approximately 0.025 kg) were purchased from Charles River Laboratories (Wilmington, Mass.). The animals were allowed food and water ad libitum. Blood samples were collected (0.2 mL from the rats via the tail vein and by cardiac puncture from the mice) at various timepoints (5 mice at each timepoint) allowed to clot for 30 minutes at room temperature, centrifuged for 3 minutes at 13,200 rpm, the serum transferred to eppendorf tubes and stored frozen at −80° C.
# [2] = Pharmacokinetics of 2B5.8.0 in Sprague-Dawley rats; format: in vivo; settings: rat, IV 4 mg/kg
# Method: as §1, §2, §3, §4, §5
# Surgically altered jugular vein cannulated, JVC) and regular male and female Sprague-Dawley Rats (approximately seven weeks old, weighing 240-390 grams) were purchased from Charles River Laboratories (Wilmington, Mass.). The animals were housed in rooms maintained at constant temperature and humidity under 12 hours light/dark cycle, fed with normal rodent chow and were allowed food and water ad libitum. Hydration and clinical conditions of the animals were monitored daily.
# as §6
# [3] = mice, intraperitoneal, both sexes
molecule,measurement,setting,value
B1,Cmax,[1]; [3],37000 to 49000 ng/mL
same,bioavailability,[1]; [3],65.8-72.0%
same,half-life,[1]; [3],13.8 to 16.1 days
same,AUC0-∞,"[1]; mouse, female, IP 4 mg/kg",16100 µg·h/mL
same,Cmax,"[1]; mouse, female, IP 4 mg/kg",49400 ng/mL
same,F (%),"[1]; mouse, female, IP 4 mg/kg",65.8%
same,MRT,"[1]; mouse, female, IP 4 mg/kg",19.3 days
same,Tmax,"[1]; mouse, female, IP 4 mg/kg",1 days
same,T½,"[1]; mouse, female, IP 4 mg/kg",13.8 days
same,AUC0-∞,"[1]; mouse, female, IV 4 mg/kg",24500 µg·h/mL
same,CL,"[1]; mouse, female, IV 4 mg/kg",3.84 mL/day/kg
same,MRT,"[1]; mouse, female, IV 4 mg/kg",22.8 days
same,T½,"[1]; mouse, female, IV 4 mg/kg",16.2 days
same,Vss,"[1]; mouse, female, IV 4 mg/kg",0.089 L/kg
same,Vz,"[1]; mouse, female, IV 4 mg/kg",0.092 L/kg
same,AUC0-∞,"[1]; mouse, male, IP 4 mg/kg",19400 µg·h/mL
same,Cmax,"[1]; mouse, male, IP 4 mg/kg",37300 ng/mL
same,F (%),"[1]; mouse, male, IP 4 mg/kg",72%
same,MRT,"[1]; mouse, male, IP 4 mg/kg",23.4 days
same,Tmax,"[1]; mouse, male, IP 4 mg/kg",2 days
same,T½,"[1]; mouse, male, IP 4 mg/kg",16.1 days
same,AUC0-∞,"[1]; mouse, male, IV 4 mg/kg",26900 µg·h/mL
same,CL,"[1]; mouse, male, IV 4 mg/kg",3.6 mL/day/kg
same,MRT,"[1]; mouse, male, IV 4 mg/kg",37.5 days
same,T½,"[1]; mouse, male, IV 4 mg/kg",26.3 days
same,Vss,"[1]; mouse, male, IV 4 mg/kg",0.134 L/kg
same,Vz,"[1]; mouse, male, IV 4 mg/kg",0.135 L/kg
same,AUC0-∞,[2]; female,12000 ± 4600 µg·h/mL
same,CL,[2]; female,8.88 ± 3.12 mL/day/kg
same,MRT,[2]; female,10.8 ± 3.5 days
same,Vss,[2]; female,0.088 ± 0.0062 L/kg
same,Vz,[2]; female,0.101 ± 0.0131 L/kg
same,T½,"[2]; female, 4 mg/kg",8.9 days and 8.5 ± 2.2 days
same,AUC0-∞,[2]; male,9900 ± 700 µg·h/mL
same,CL,[2]; male,9.84 ± 0.72 mL/day/kg
same,MRT,[2]; male,12.6 ± 1.6 days
same,T½,[2]; male,9.1 days
same,Vss,[2]; male,0.122 ± 0.0185 L/kg
same,Vz,[2]; male,0.127 ± 0.0189 L/kg
